Assay results reported in patent US20260070974A1 (NONA BIOSCIENCES SUZHOU, published 2026).
Several values for one entry are separate records, joined by “and”; a condition that tells them apart may be missing. Equal values may be shown once.

T1: human Siglec-4a-his protein (Acrobiosystems, Cat MAG-H52H8) (human, UniProt P20916 20-516)
T1 construct: Bought protein; not shown: his tag
T1 sequence (looked up): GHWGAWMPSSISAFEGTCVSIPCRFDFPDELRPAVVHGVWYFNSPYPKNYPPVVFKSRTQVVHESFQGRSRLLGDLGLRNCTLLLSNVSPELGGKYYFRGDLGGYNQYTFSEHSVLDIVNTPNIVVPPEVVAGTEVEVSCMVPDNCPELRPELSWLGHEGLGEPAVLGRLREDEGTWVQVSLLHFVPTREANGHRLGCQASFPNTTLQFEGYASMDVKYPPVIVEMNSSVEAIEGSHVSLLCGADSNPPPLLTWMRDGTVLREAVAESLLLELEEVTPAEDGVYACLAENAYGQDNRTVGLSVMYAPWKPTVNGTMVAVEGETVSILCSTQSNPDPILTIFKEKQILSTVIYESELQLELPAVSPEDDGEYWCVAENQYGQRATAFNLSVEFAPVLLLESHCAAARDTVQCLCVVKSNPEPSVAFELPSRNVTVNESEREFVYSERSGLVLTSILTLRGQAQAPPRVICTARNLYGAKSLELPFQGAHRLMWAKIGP

T2: human Siglec-10-his protein (Acrobiosystems, Cat SIO-H52H9) (human, UniProt Q96LC7 17-546, limits assumed)
T2 construct: Bought protein; not shown: his tag
T2 sequence (looked up): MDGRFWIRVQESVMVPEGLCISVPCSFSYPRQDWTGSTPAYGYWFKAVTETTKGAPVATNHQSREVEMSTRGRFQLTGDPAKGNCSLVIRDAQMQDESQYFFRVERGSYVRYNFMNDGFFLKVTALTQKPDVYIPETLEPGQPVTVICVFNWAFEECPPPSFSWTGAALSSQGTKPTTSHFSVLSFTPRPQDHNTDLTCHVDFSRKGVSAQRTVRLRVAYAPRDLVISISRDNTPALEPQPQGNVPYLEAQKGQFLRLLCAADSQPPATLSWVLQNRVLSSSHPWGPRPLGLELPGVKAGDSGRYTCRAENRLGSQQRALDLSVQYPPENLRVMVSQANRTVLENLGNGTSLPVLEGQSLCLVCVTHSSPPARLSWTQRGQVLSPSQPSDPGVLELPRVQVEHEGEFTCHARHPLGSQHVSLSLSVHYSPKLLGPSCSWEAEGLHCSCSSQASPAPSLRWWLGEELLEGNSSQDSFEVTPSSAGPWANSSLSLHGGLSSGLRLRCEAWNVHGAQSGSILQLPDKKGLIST

B1: PR301285 (antibody, human IgG1, kappa, V domains shown)
VH: QVQLQESGPGLVKPSETLSLTCTVSGGSMISYYWSWLRQPPGKGLEWIGYIYYSGNTNYNPSLKSRITIAVDTSKNQFSLKLNSVTAADTAVYYCARERELHPYYFDYWGQGTLVTVSS
VL: DIQLTQSPSFLSASVGDRVTITCRASQGIDNYLAWYQQKPGKAPKVLIYAASTLQSGVPSRFSGSGSGTEFTLTISSLQPEDFATYYCQQLNSYPLTFGGGTKVEIKR
B2: PR301289 (antibody, human IgG1, kappa, V domains shown)
VH: QVQLVQSGAEVKKPGASVKVSCRASGYTFTSYDINWVRQATGQGLEWMGWMNPHSGDTGYAQNFQGRVTMTWNTSISTAYMELSSLRSEDTAVYYCARRRVGVYYYGMDVWGQGTTVTVSS
VL: ENVLTQSPGTLSLSPGERATLSCRASQSVSSSYFGWYQQKPGQAPRLLIYGASSRATGIPDRFSGSGSGTDFTLTISRLEPEDFAVYYCQQYGSSPITFGQGTRLEIKR
notes: Parent of the PTM variants PR301289-1 and -2
B3: PR301286 (antibody, human IgG1, kappa, V domains shown)
VH: QVQLVESGGGVVQPGKSLRLSCAASGFTFSSYGMHWVRQAPGKGLEWVAVIWIDGSNRYYAASVKGRFTISRDNSKNTLYLQMNSLRAEDTAVYYCTRGYGDYAYVMDVWGQGASVTVSS
VL: DIVMTQSPLSLPVTPGEPASISCRSSQSLLPGNGYNYLDWYLQKPGQSPQLLIYLGSNRASGVPDRFSGSGSGTDFTLKISRVEAEDVGIYYCMQALQSPLTFGGGTKVEIKR
notes: Parent of the PTM variants PR301286-1, -3, -5, -6, -7
B4: PR300066 (Tab) (antibody, human IgG1, kappa, V domains shown)
VH: QVQLQQPGAELVKPGASVKMSCKASGYTFTSYWITWVIQRPGQGLEWIGDIYCGSDTMHYNEKFKNKATLTVDTSSSTAYMQLSSLTSEDSAVYYCARWWDYGSSYDYFDYWGQGTTLTVSS
VL: DIKMTQSPSSMYASLGERVTITCKASQDINSYLSWFQQKPGKSPKTLIYRANRLVDGVPSRFSGSGSGQDYSLTISSLEYEDMGIYYCLQYDEFPYTFGGGTKLEIKR
notes: variable region from clone 5G12 of WO 2018/057735A1, on human IgG1/kappa constant regions; also called 5G12

Each binder was assayed against T3, human PD-L1/B7-H1-his protein (Acrobiosystems, Cat PD1-H5229) (human, UniProt Q9NZQ7 19-238) (assay: ELISA on coated human PD-L1/B7-H1-his, antibody at 100 nM and 10 nM, goat anti-human IgG-HRP, OD450).
T3 construct: Bought protein; not shown: his tag
T3 sequence (Q9NZQ7 19-238 limits assumed): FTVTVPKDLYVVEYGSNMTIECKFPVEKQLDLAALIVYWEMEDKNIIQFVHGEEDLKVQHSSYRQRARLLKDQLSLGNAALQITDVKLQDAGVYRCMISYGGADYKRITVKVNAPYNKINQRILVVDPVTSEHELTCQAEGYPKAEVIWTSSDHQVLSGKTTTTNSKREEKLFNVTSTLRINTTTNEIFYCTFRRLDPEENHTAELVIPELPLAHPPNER
Description: (§1) Human Siglec-15 ECD-his protein (Acrobiosystems, Cat SG5-H52H3), human Siglec-2-his protein (Acrobiosystems, Cat CD2-H52H8), human Siglec-4a-his protein (Acrobiosystems, Cat MAG-H52H8), human Siglec-3-his protein (Acrobiosystems, Cat CD3-H5226), human Siglec-10-his protein (Acrobiosystems, Cat SIO-H52H9), and human PD-L1/B7-H1-his protein (Acrobiosystems, Cat PD1-H5229), each at 1 μg/mL and dissolved in PBS, were each added to an ELISA plate at 100 μL/well for coating and the plate was incubated overnight at 4° C. The ELISA plate was then blocked with PBST (PBS+0.05% Tween 20) containing 2% BSA at 200 μL/well and incubated at 37° C. for 1 h. The ELISA plate was washed 4 times with PBST. The anti-Siglec-15 antibody diluted in a gradient (concentrations: 100 nM and 10 nM) was added to the ELISA plate at 100 μL/well and the plate was incubated at 37° C. for 1 h. The ELISA plate was washed 4 times with PBST. The goat anti-human IgG (H+L)-HRP (1:5000, Jackson, Cat 109-035-088) was added at 100 μL/well and the plate was incubated at 37° C. for 1 h. The ELISA plate was washed 4 times with PBST. The TMB substrate (Biopanda, Cat TMB-S-003) was added at 100 μL/well, and the plate was incubated at room temperature for 5 min, and then the stop buffer (Solarbio, Cat #: C1058) was added at 100 μL/well to stop the reaction.
B1: no binding (tested: 100 nM). B2: no binding (tested: 100 nM). B3: no binding (tested: 100 nM). B4: no binding (tested: 100 nM).

These binders were tested against T4, mouse Siglec-15-his protein (Acrobiosystems, Cat #: SG5-M52H7) (mouse) (assay: ELISA, coated mouse Siglec-15-his).
T4 construct: Bought protein; also called mouse Siglec-15 protein
Description: […] mouse Siglec-15-his protein (Acrobiosystems, Cat #: SG5-M52H7) dissolved in PBS was added to an ELISA plate at 100 μL/well for coating and the plate was incubated overnight at 4° C. The ELISA plate was then blocked with PBST (PBS+0.05% Tween 20) containing 2% BSA at 200 μL/well and incubated at 37° C. for 1 h. The ELISA plate was washed 4 times with PBST. The anti-Siglec-15 antibody diluted in a gradient (5-fold dilution, starting concentration: 6.67 nM) was added to the ELISA plate at 100 μL/well and the plate was incubated at 37° C. for 1 h. The ELISA plate was washed 4 times with PBST. The goat anti-human IgG (H+L)-HRP (1:5000, Jackson, Cat: 109-035-088) was added at 100 μL/well and the plate was incubated at 37° C. for 1 h. The ELISA plate was washed 4 times with PBST. The TMB substrate (Biopanda, Cat: TMB-S-003) was added at 100 μL/well, and the plate was incubated at room temperature for 5 min, and then the stop buffer (Solarbio, Cat #: C1058) was added at 100 μL/well to stop the reaction.
In the case of B2, the EC50 is reported as 0.036 nM. For B3, the EC50 was 0.051 nM. B4 was tested, and the EC50 was 0.019 nM and 0.023 nM.

These binders were tested against T1, human Siglec-4a-his protein … (assay: ELISA on coated human Siglec-4a-his, antibody at 100 nM and 10 nM, goat anti-human IgG-HRP, OD450).
Description: as §1
B1: no binding (tested: 100 nM). B2: no binding (tested: 100 nM). B3: no binding (tested: 100 nM). B4: no binding (tested: 100 nM).

Each binder was assayed against T2, human Siglec-10-his protein … (assay: ELISA on coated human Siglec-10-his, antibody at 100 nM and 10 nM, goat anti-human IgG-HRP, OD450).
Description: as §1
B1: no binding (tested: 100 nM). B2: no binding (tested: 100 nM). B3: no binding (tested: 100 nM). B4: no binding (tested: 100 nM).
